The text below walks through data of the DeepSol protein solubility set.

The data set is described as follows: soluble on expression in E. coli; label from the status in PepcDB or PDB records.
For “MGSDKIHHHHHHMSSSDNILERLLFTIHKRLVSIPIAPNLRKNVAPIVNDWPSRPEKNTRPSTTVHLPAVDYLEQALKIGETSGDREICPMIRLLAPELSWNFDYAPHPAFPYLDEKVAFTQFVGPNDLWVSSHLAIGLTLIAPETHYPAHCHPATEIYLPLAGTGSWSMGNYYYFPRKPGELIFHPSGITHATQAQEEPMLALYIWHGDICSPSEWLPDECE”, the “soluble on expression in E. coli” value is given as “not soluble”.

On to “MDVFLMIRRHKTTIFTDAKESSTVFELKRIVEGILKRPPDEQRLYKDDQLLDDGKTLGECGFTSQTARPQAPATVGLAFRADDTFEALCIEPFSSPPELPDVMKPQDSGSSANEQAVQ”, for which the “soluble on expression in E. coli” value was “soluble”.

Take “MSLSKNRNIIEGRILSFDKSPFSKDFDLSSLKIDKKRIFIIDGIIESIEPVNFINPEFQDIEIIDYGDHLISAGFVDAHVHYPQTAIVASWGKRLIDWLNTYTFPEEMRFSNLNYASEIAARYIDFSLSNGTTTMASYCTIHPESVDAFFKSAAVKNMCVVGGKTCMDRNAPGDLCDSAKSAYDDSKALLQKWHHKGRAHYAITPRFSPTSTPDQLLALGSLWSEFPGCLMQTHLSEQVDEIDWVRKLFPNARDYLDTYETFGLLGERGVYGHAIHLEAREIDRLSEVGASLIHCPTSNTFIGSGLFNMEDLTSRSLKVGLASDIGGGSSFSMLRTMAGAYEVAQLRGLALHPSQLMWLATQGSAKALHLDNQIGNIAPGMAADLVVLDLSSTPTISQRSARANDVWEELFPTIMMGDDRAIAATYVAGKKIEGHHHHHH”: the “soluble on expression in E. coli” value was “soluble”.

For “MPSVFEAKGLPSLGPPVSNWGTNQPGTGVARNTRREKLGLWSAVALQQHFTATGGRGGLPLPLSSSALPSQEDRGTAAALGDNAGFSSGAVSSDLRSHLGPAPSLAGRLHKPTLAQRMGLVPGPTPPPSADDWRVITHRALQREHRHARDAGSPGANPSICPICQMSYSTNCDEGQVILSCSHVFHARCFRSFERYVRAQQRADALRIGEVSAPLACPVCRTQSYYKRIFYEGKAVAQRAAIVKVQAAVRGLLARRAYIKIKLQNNPEFRTRYVQERLARLSAAWQTFCAEQEQRRAGLQTALTVQQEMARAAFLSEEAWAEIWRKAVHGPSTSSEPGSSAAPSTAGASVQCPICLELIHCSQCPGTGAAASHAGGVRRLTGKDAVAAMWAAYEARKVAKRLPSVEPKAARASAGALVRSAVKGAAQRKTGNSLTPMPGAVASVRDGKVASSRAPEHRAGRQKGFAQPTAAAPWPEHANAFAALSSAPGVDAVGAHEAAVVLPQSGILLSCGHCFHAACIDCYERFHERRCLDMVEQDGGAVVAFPSRCPVCRSGYAKHPM”, the “soluble on expression in E. coli” value is “not soluble”.

For the sequence “MVSYKARISLSGTEHRVVDRVCNEIKEIASRTGVEIHGPMPLPTKRLVVPVRKSPDGEGTNTWDHWEMRIHKRLIDVDADERTLRQLMRIPIPDGVQIEIQIKS”, the “soluble on expression in E. coli” value is “soluble”.

“MLRSLLKSRQVICGLRELRALSTSQGNESIIDFVDTVTETSEAQNQSFASLLRNSKFMQLGDFNGRLVVGKIAQRVQEDVYIDFGLKFNAVCKVPALNSEAYRSGARVLIRLIDPELSERFLGSKHDLTLLEADAVLVRLLSNVPRQQQQRQKPRGATEEEAPAAPETPAAH”: the “soluble on expression in E. coli” value was “not soluble”.

Take “MLDLFADAEPWQEPLAAGAVILRRFAFNAAEQLIRDINDVASQSPFRQMVTPGGYTMSVAMTNCGHLGWTTHRQGYLYSPIDPQTNKPWPAMPQSFHNLCQRAATAAGYPDFQPDACLINRYAPGAKLSLHQDKDEPDLRAPIVSVSLGLPAIFQFGGLKRNDPLKRLLLEHGDVVVWGGESRLFYHGIQPLKAGFHPLTIDCRYNLTFRQAGKKENLYFQNLYFQ”: the “soluble on expression in E. coli” value was “soluble”.

“MIDISVVIPLLNEAESIPELFAWIRRVMNEHGYSYEVIFVDDGSTDGSWSVIERLQAEHPEVKGIKFRRNYGKSAGLQCGFARTQGQVVITMDADLQDSPDEIPELYRMVTEGGYDLVSGWKRKRYDPLFSKNLPSKLFNATARKLSGIKLHDFNCGLKAYRHEVVENIELYNDMHRYIPYLAKSAGFGRIGEKVVQHQARKYGSSKFGISRFFNGYLDLLTLWFISKFGRKPMH”: the “soluble on expression in E. coli” value is on record as “not soluble”.

With “MNFRPIAGIDVGKFFSEMAILSPSNEVIARMKIRHDSSTDVERAVELLKKTEKDFDSRPFVVMESTGHYHKILFHSLYKAGFEVSVINPIQTDSIKNIGIRKVKNDKVDARKIALLYRFQELKIQYPERYGCWTLARNKACEVWYNRKGLAAALR”, the “soluble on expression in E. coli” value is on record as “not soluble”.

As to “MSLYTFKELKRATKQDTVSLPKLKVALLGDTATQLLATAIKGEGILRNYNIELWEAEYNQVERQIMDPTSDYYQFEPDYTIIFHSTHKLLEKHSLVNSDLQNKLADDRLDFVRLLCEQGIGRVIYYNYPEIEDTIWGSYATKVQSSFTYQLTKLNYELMNISQAYPNFFICNLAGISAKYGRNFMFDSSVYVNTEIILSLDALPIISSRTIDIIAAIQGKFKKCLILDLDNTIWGGVVGDDGWENIQVGHGLGIGKAFTEFQEWVKKLKNRGIIIAVCSKNNEGKAKEPFERNPEMVLKLDDIAVFVANWENKADNIRTIQRTLNIGFDSMVFLDDNPFERNMVREHVPGVTVPELPEDPGDYLEYLYTLNLFETASFSEDDKDRTKQYQIEAKRVSLQQSFTNEAEFLKSLDMVSEVKGFDKFNTPRVAQLSQRSNQFNLRTVRYTEAEIAAIESDLHYATFSFTLADRFGDNGLICVIILEKQDTETLFINTWFMSCRVLKRGMENFTLNTLVDYARSNGFKRFIGEYLPSAKNQMVEEHYPHLGFSKMEGGDNAARYVLDVEEGHHHHHH”, the “soluble on expression in E. coli” value is listed as “not soluble”.

Consider “MGSDKIHHHHHHALSPETGSTSVAVMGRQLYEEMRLDQWVCFDAFMQGLRGSEKIDRKNKDILTLIDFSKPSTAERMVVLDIRQKRILYTSLVSHGKNSGGNYATSFSNENGSHKSSLGFYLTENTYQGRNGYSLILNGLEKGINDLAKQRAIVIHGASYSDPSVAASSGRLGRSFGCPALPVSVSKPIINTIKNGTLLFIYANDKNYLTQSSILSTQQENDIFHEKSYRKVL”, for which the “soluble on expression in E. coli” value was “not soluble”.

In the case of “MSLPILTIREVCNINHWGIGYYDVDDSGEIIVRPNPSQHNQTVSLQKLTEAVQQKHQARLPVLFCFPQILEHRLRDINRAFQTAREECGYKGGYCLVYPIKVNQHRRVIESLMSSGQPHGLEAGSKAELMAVLAHAGNRQTLIVCNGYKDREYIRFALMGEKLGHQVYLVIEKLSEIQMVLEEAEKLGIKPRLGVRARLASQGSGKWQSSGGEKSKFGLSASQVLQLVDILKQKNRLDCLQLLHFHLGSQLGNIRDVATGVHESARFYVELHKLGVNIRCFDVGGGLGVDYEGNRTQSDCSVNYSLNEYAATVVWGISQACLEHGLPHPTIITESGRGITAHHAVLVANVIGVERYKPRRLDAPSPEAPRVLHSMWETWTDISASREKRSLRSWIHEGQFDLADVHNQYNVGLLSLAQRAWAEQLYLNICHEVGELFNEKHRSHRTIIDELQERFADKLYVNFSLFQSLPDAWGIDQLFPVCPITGLNEPIARRAVLLDITCDSDGTIDHYIDGDGIAGTMPMPDYPEEEPPLLGFFMVGAYQEILGNMHNLFGDTATADVVVGEDGQFTVIDYDEGNTVADMLEYVYQDPKELMKRYREQIEHSDLPASQAMSFLKELEAGLNGYTYLEDEEGHHHHHH”, the “soluble on expression in E. coli” value is “soluble”.

With “MSEEHIAVTRFREYLRVNTEQPNPNYAACRDFLFKYADELGIARRSIETAPGVFLVIMTIPGSQPELPSIMLYSHTDVVPTFREHWTHDPYSAFKDEDGNIFARGAQDMKCVGVQQMEALRNLFAQGIRQWKRTIHLVWGPDEEIFGINGMKGFAKTDEFKKLNLGFSLDEGMPSDDDVYKVFYAERVAWWVKVTFPGNPGHGSQFMENTAMEKLERFLASARKFRNEQKVVLESNPNLTLGDVTTLNVNIVNGGVQFNVIPEKFEAYVDMRLTPHEDFNKIREMLDQWAKNAGEGVTYEFSQYSDQKPISAHTRDNSFWAAFEDSLNQENCKFEKGIMVASTDSRFVRYEGVNSINFSPMINTPFLPHDHNEYLNEKVFLRGLEIYQTIINNLGNV”, the “soluble on expression in E. coli” value is “not soluble”.

For “MSRVRTKTVKKASRVLIEKYYTRMTNDFHNNKRVCDEVAIIGSKPLRNKIAGYITHLMRRIERGPVRGISIKLQEEERERRDNYMPEISTVDPSQLTSIKVDTDTSDMLKAAGFNLPNVTVEDQGKNKGK”, the “soluble on expression in E. coli” value is “not soluble”.

Regarding “MGHHHHHHSHMAAAIASSLIRQKRQAREREKSNACKCVSSPSKGKTSCDKNKLNVFSRVKLFGSKKRRRRRPEPQLKGIVTKLYSRQGYHLQLQADGTIDGTKDEDSTYTLFNLIPVGLRVVAIQGVQTKLYLAMNSEGYLYTSELFTPECKFKESVFENYYVTYSSMIYRQQQSGRGWYLGLNKEGEIMKGNHVKKNKPAAHFLPKPLKVAMYKEPSLHDLTEFSRSGSGTPTKSRSVSGVLNGGKSMSHNEST”, the “soluble on expression in E. coli” value is on record as “soluble”.

For “MPNRHGSPRSSTRWAGLAIIALACLLSACSSTPTRSLTSRDTSGQRTHGAAINDPSAGLEEISIEAMALVGTPYRYGGNTPDSGFDCSGLVRYVVQRAASVNLPRTAAEMGTRGFALERRDVASGDLVFFNTTGRPNSHVGIYVGQNRFVHAPATGGTVRLEDMSKRYWASRYMGARRVVAVSNLPDLPASPAAATQSIAAGAAAPATAPAHANDDDPLGTLARARGTESSPLMSTRNAAPVVVPPADDDPIARFATQ”, the “soluble on expression in E. coli” value is “soluble”.

In the case of “MGSDKIHHHHHHMTERELEILALLKQDPLIPQQELADRLGISRSAVAGHIMNLTNKGVIRGKGYILAEAKYAMVIGGANMDILGRPASSLRVGDSNPGSVSCSPGGVGRNIAENLARLGSDTRLMTAVGKDAYGQQIVEHCQRAGIDMKPSLQLSDGVTSTYLSVLDGDSDMHVAINDMAILERLGVEQLKSQQEMLKRASLAIIDANLSEAALAYLLSNFADIPLFVDTVSCAKAEKIKPYLGAVHTLKPNLKEAEQLSGISIANYGELPVLANWFHEQGVKRVFLSLGIDGVFYSDGEEQAHIPAIPVEMVNANGAGDAFLAGLAHGFMQGWSTRQSTEFAMAAAVVALSDLATINPNMSEISVNRVIKESLC”, the “soluble on expression in E. coli” value is given as “not soluble”.

For the sequence “MGSDKIHHHHHHMEALLQLKGIDKAFPGVKALSGAALNVYPGRVMALVGENGAGKSTMMKVLTGIYTRDAGTLLWLGKETTFTGPKSSQEAGIGIIHQELNLIPQLTIAENIFLGREFVNRFGKIDWKTMYAEADKLLAKLNLRFKSDKLVGDLSIGDQQMVEIAKVLSFESKVIIMDEPTDALTDTETESLFRVIRELKSQGRGIVYISHRMKEIFEICDDVTVFRDGQFIAEREVASLTEDSLIEMMVGRKLEDQYPHLDKAPGDIRLKVDNLCGPGVNDVSFTLRKGEILGVSGLMGAGRTELMKVLYGALPRTSGYVTLDGHEVVTRSPQDGLANGIVYISEDRKRDGLVLGMSVKENMSLTALRYFSRAGGSLKHADEQQAVSDFIRLFNVKTPSMEQAIGLLSGGNQQKVAIARGLMTRPKVLILDEPTRGVDVGAKKEIYQLINQFKADGLSIILVSSEMPEVLGMSDRIIVMHEGHLSGEFTREQATQEVLMAAAVGKLNRVNQE”, the “soluble on expression in E. coli” value is “not soluble”.

With “MADDGPIIEEIAEKNGRVARIMQRLQHDTQRVTSVPGFNTSATGYADLIALLDQYKNDLEAVGFNDLEQARRRAPSVDITVGSNSTNLVDYSHGRHDMPSHRRHDSSDEEITAANSHHQSPINVGNRNDTDGTNGRNGSRAGSSSSDRVRMIAGRNRISKTRRYRPGQKALEEIRKYQESEDLLIPKAPFARLVREIMQTSTPFSSDLRIRSDAINALQEASEALLVQMFDGSSLISAHSKRATLTTTDVQLYRRLCLPNL”, the “soluble on expression in E. coli” value is reported as “not soluble”.
